Laboratory results as given in US9840539B2, “High affinity digoxigenin binding proteins” (UNIVERSITY OF WASHINGTON THROUGH ITS CENTER FOR …, priority 2013, dated 2017).
Substitutions are numbered along the chain they refer to. Names may count otherwise. “Also recorded” adds a separate entry of the source. Where two headings read alike, the source gives them in different places.

B1: DIG5: computationally designed digoxigenin binding polypeptide from scaffold 1z1s, SEQ ID NO: 10 (protein)
chain: MNAKEILVHSLRLLENGDARGWCDLFHPEGVLEFPYAPPGWKTRFEGRETIWAHMRLHPEHVTVRFTDVQFYETADPDLAIGEYHGDGVVTVSGGKYAADFITVLRTRDGQILLYRVFWNPLRALEAAGGVEAAAKIVQGA
modifications: (130)..(141) amino acids are optionally absent
B2: DIG10: computationally designed digoxigenin binding polypeptide from scaffold 1z1s, SEQ ID NO: 12 (protein)
chain: MNAKEIVVHSLRLLENGDARGWCDLFHPEGVLEYPYAPPGHKTRFEGRETIWAHMRLFPEYVTVRFTDVQFYETADPDLAIGEFHGDGVHTVSGGKLAADYISVLRTRDGQILLYRVFFNPLRVLEALGGVEAAAKIVQGA
modifications: (130)..(141) amino acids are optionally absent
B3: DIG10.2: DIG10.1a variant with A37P and H41Y, SEQ ID NO: 14 (protein)
chain: B2 chain with S10A, A37P, H41Y, V62M, V64I, V117L, A127P
modifications: (130)..(141) amino acids are optionally absent
B4: 1z1s: scaffold, hypothetical protein of unknown function from Pseudomonas aeruginosa, SEQ ID NO: 24 (protein)
chain: B2 chain with V7L, Y34F, H41W, Y61H, V62L, H90A, A99Q, V117D, F119W, V124H
B5: DIG10.1a: affinity matured DIG10 variant with S10A, V62M, V64I, V117L, A127P; SEQ ID NO: 13 (protein)
chain: B2 chain with S10A, V62M, V64I, V117L, A127P
modifications: (130)..(141) amino acids are optionally absent

Columns and labels:
[1] = Fluorescence polarization equilibrium binding assay with purified protein; details: for affinity for DIG-PEG3-Alexa488 by fluorescence polarization (in words): purified protein in solution
Description: Proteins were expressed in E. coli Rosetta 2 (DE3) cells with a C-terminal TEV protease cleavable His6 tag for biochemical assays. For crystallographic analysis of DIG10 variants, a 12-amino acid structurally disordered C-terminus deriving from the scaffold protein 1z1s was replaced directly with a His6 tag. Binding affinities were determined by equilibrium fluorescence polarization^30 on a SpectraMax M5e microplate reader by monitoring the anisotropy of DIG-conjugated Alexa488 as a function of protein concentration. Equilibrium fluorescence polarization competition assays were performed by examining the effect of increasing concentrations of unlabeled DIG, digitoxigenin, progesterone, and β-estradiol on the anisotropy of designed protein-DIG-conjugated Alexa488 complex.
Fluorescence polarization binding assays. Fluorescence polarization-based affinity measurements of designs and their evolved variants were performed as described^46 using Alexa488-conjugated DIG (DIG-PEG3-Alexa488). Fluorescence anisotropy (r) was measured in 96-well plate format on a SpectraMax M5e microplate reader (Molecular Devices) with λex=485 nM and λem=538 nM using a 515 nm emission cutoff filter. Fluorescence polarization equilibrium competition binding assays were used to determine the binding affinities of DIG10.3 and its variants for unlabeled digoxigenin, digitoxigenin, progesterone, β-estradiol, and digoxin. The inhibition constant for each protein-ligand interaction, Ki, was calculated from the measured total unlabeled ligand producing 50% binding signal inhibition (I50) and the Kd of the protein-label interaction according to a model accounting for receptor-depletion conditions^46.
Fluorescence polarization equilibrium binding assays. Fluorescence polarization-based affinity measurements of designs and their evolved variants were performed as noted previously^47 using Alexa488-conjugated DIG (DIG-PEG3-Alexa488). In a typical experiment, the concentration of DIG-PEG3-Alexa488 was fixed below the Kd of the interaction being monitored and the effect of increasing concentrations of protein on the fluorescence anisotropy of Alexa488 was determined. Fluorescence anisotropy (r) was measured in 96-well plate format on a SpectraMax M5e microplate reader (Molecular Devices) with λex=485 nM and λem=538 nM using a 515 nm emission cutoff filter. In all experiments, PBS (pH 7.4) was used as the buffer system and the temperature was 25° C. DIG-PEG3-Alexa488 solutions were prepared from a 1 mM stock in DMSO. Equilibrium dissociation constants (Kd) were determined by fitting plots of the anisotropy averaged over a period of 20 to 40 min after reaction initiation versus protein concentration as described previously^47. […]

[2] = Yeast surface display flow cytometry binding assay, DIG-BSA-biotin and SAPE; details: for compensated mean binding (PE) signal on yeast: 2.7 μM DIG-BSA-biotin pre-incubated with SAPE; for binding in presence of unlabeled DIG competitor: DIG-BSA or DIG-RNase label, ˜1 mM unlabeled DIG
Source text: (§1) DIG10.1a-derived library DNA was sequenced in paired-end mode on an Illumina MiSeq.
(§2) General experimental methods. Detailed procedures for the syntheses of DIG-BSA-biotin, DIG-RNase-biotin, DIG-PEG3-biotin, and DIG-PEG3-Alexa488, as well as protein expression, purification, and crystallization, cloning, and mutagenesis methods are given in Supplementary Methods. Details about fluorescence polarization binding assays, gel filtration analysis, and protein stability measurements are also provided in Supplementary Methods. Yeast surface display. Designed proteins were tested for binding using yeast-surface display^40. […] DIG binding was assessed by quantifying the phycoerythrin (PE) fluorescence of the displaying yeast population following incubation with DIG-BSA-biotin, DIG-RNase-biotin, or DIG-PEG3-biotin, and streptavidin-phycoerythrin (SAPE). In a typical experiment using DIG-BSA-biotin or DIG-RNase-biotin, cells were resuspended in a premixed solution of PBSF (PBS+1 g/L of BSA) containing a 1:100 dilution of anti-cmyc FITC, […] DIG-BSA-biotin or DIG-RNase biotin, and 664 nM SAPE for 2-4 hr incubation at 4° C. Cellular fluorescence was monitored on an Accuri C6 flow cytometer using a 488 nm laser for excitation and a 575 nm band pass filter for emission. Phycoerythrin fluorescence was compensated to minimize bleed-over contributions from the FITC channel. Competition assays with free digoxigenin were performed as above except that between 750 μM and 1.5 mM of digoxigenin was added to each labeling reaction mixture. Full details are given in Supplementary Methods.
(§3) Yeast surface display assays. Designed proteins were tested for binding using yeast-surface display^23. Designs DIG1-17/pET29FLAG, DigA16/pET29FLAG, and 3hk4/pET29FLAG were subcloned into the NdeI/XhoI cloning sites of pETCON^24. Designs and control proteins in pETCON were transformed into EBY100 cells using lithium acetate and polyethylene glycol^25 with dH2O instead of single stranded carrier DNA and were plated on selective media (C -ura -trp). Freshly transformed cells were inoculated into 1 mL of SDCAA media^23 and grown at 30° C., 200 rpm. After ˜12 hrs, 1e7 cells were collected by centrifugation at 1,700×g for 3 min and resuspended in 1 mL of SGCAA media to induce protein expression. Following induction for 24-48 hrs at 18° C., 4e6 cells were collected by centrifugation, and washed twice by incubation with PBSF (PBS supplemented with […]) for 10 min at room temperature
(§4) DIG binding was assessed by quantifying the phycoerythrin (PE) fluorescence of the displaying yeast population following incubation with DIG-BSA-biotin, DIG-RNase-biotin, or DIG-PEG3-biotin, and streptavidin-phycoerythrin (SAPE; Invitrogen, Carlsbad, Calif.). In a typical experiment using DIG-BSA-biotin or DIG-RNase-biotin. 4e6 cells were resuspended in 50 μL of a premixed solution of PBSF containing a 1:100 dilution of anti-cmyc FITC, 2.66 μM DIG-BSA-biotin or DIG-RNase biotin, and 664 nM SAPE. Following a 2-4 hr incubation at 4° C. in the dark on a rotator, cells were collected by centrifugation at 1,700×g for 3 min and washed with 200 μL of PBSF at 4° C. Cell pellets were resuspended in 200 μL of ice-cold PBSF immediately before use. Cellular fluorescence was monitored on an Accuri C6 flow cytometer using a 488 nm laser for excitation and a 575 nm band pass filter for emission. Phycoerythrin fluorescence was compensated to minimize bleed-over contributions from the FITC fluorescence channel. […]

[3] = Yeast surface display flow cytometry binding assay, DIG-RNase-biotin and SAPE; details: for compensated mean binding (PE) signal on yeast: 2.7 μM DIG-RNase-biotin pre-incubated with SAPE
Source text: as §1, §2, §3, §4

[4] = Circular dichroism spectroscopy, temperature melting; format: physicochemical
Description: Circular dichroism spectroscopy. Circular dichroism spectra were collected on an Aviv 62A DS spectrometer. Samples were prepared in PBS. Fixed-temperature scans were conducted at 25° C. All proteins were stable <°60 C.

Molecule | affinity for DIG-PEG3-Alexa488 by fluorescence polarization (in words) [1] | compensated mean binding (PE) signal on yeast [2] | binding in presence of unlabeled DIG competitor [2] | compensated mean binding (PE) signal on yeast [3] | binding (PE) signal in presence of unlabeled DIG competitor ([3]; 2.7 μM DIG-RNase-biotin, 790 μM unlabeled DIG) | thermal stability by CD temperature melting [4] | thermal stability by CD temperature melting ([4]; PBS) | increase of binding affinity relative to DIG10 ([1]; after one round of mutagenesis and selections) [fold] | binding (PE) signal, stringent multistep labeling ([3]; 5 pM DIG-RNase, then SAPE)
B1 | low to mid micromolar range | slightly above background levels | reduced to background levels | strong binding signals | reduced to that of the negative control ZZ(−) |  |  |  | 
B2 | low to mid micromolar range | strong binding signals | reduced to background levels | strong binding signals |  |  |  |  | 
B3 |  |  |  |  |  | stable at temperatures below 60 °C |  |  | 
B4 | does not bind | does not bind to either label |  | does not show a binding signal |  |  | stable at temperatures below 60 °C |  | 
B5 |  |  |  |  |  | stable at temperatures below 60 °C |  | 75 | slightly higher signal; also recorded: strong binding signals
